Results taken from PMC9684507.

Target: T1, glucocorticoid receptor (GR) ((MCF-7 breast cancer cells)) (UniProt P04150)
T1 sequence: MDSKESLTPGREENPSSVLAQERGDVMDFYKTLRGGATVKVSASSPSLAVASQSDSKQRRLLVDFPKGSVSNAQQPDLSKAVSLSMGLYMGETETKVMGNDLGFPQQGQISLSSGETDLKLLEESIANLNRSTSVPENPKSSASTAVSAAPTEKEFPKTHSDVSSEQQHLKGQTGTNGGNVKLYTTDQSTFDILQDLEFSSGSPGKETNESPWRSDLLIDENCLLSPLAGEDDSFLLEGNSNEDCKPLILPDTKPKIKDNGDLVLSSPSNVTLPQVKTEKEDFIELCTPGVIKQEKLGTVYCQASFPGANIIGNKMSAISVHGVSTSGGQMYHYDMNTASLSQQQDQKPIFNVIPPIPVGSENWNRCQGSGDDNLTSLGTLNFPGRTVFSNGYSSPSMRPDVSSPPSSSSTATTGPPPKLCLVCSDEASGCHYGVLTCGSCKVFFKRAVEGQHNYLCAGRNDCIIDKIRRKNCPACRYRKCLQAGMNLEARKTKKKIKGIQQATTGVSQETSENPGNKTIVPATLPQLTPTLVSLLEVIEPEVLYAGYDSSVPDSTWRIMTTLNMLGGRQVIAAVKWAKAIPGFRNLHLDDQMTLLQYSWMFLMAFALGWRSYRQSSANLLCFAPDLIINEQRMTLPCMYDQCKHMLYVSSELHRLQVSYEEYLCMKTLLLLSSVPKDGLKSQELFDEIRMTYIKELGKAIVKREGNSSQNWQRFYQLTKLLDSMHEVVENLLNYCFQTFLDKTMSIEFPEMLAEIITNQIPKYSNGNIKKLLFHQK
Assay: EMSA supershift
Conditions: LightShift Chemiluminescent EMSA Kit (Thermo), 6% polyacrylamide gel, antibody 1:250, additional 30 min, buffer, salt, pH and temperature not stated

TTCTGATCTTTGTTTTACTTTTCTTGGCTTCTG (double strand) [rs28714259 A (risk) probe]
binding signal (scale: fraction of G-probe supershift band intensity): < 0.4

TTCTGATCTTTGTTTTGCTTTTCTTGGCTTCTG (double strand) [rs28714259 G (major) probe]
binding signal (fraction of G-probe band intensity) (dexamethasone-treated MCF-7 nuclear extract, anti-GR antibody, reference): 1
